A value given as a limit tells only on which side of the number the result lay.

The assay deals with GFP-Hace1 (HECT domain and Ankyrin repeat Containing E3 ubiquitin-protein ligase 1) (UniProt Q8IYU2).
Sequence of UniProt Q8IYU2 (Q8IYU2 whole entry, the tested form may be a part): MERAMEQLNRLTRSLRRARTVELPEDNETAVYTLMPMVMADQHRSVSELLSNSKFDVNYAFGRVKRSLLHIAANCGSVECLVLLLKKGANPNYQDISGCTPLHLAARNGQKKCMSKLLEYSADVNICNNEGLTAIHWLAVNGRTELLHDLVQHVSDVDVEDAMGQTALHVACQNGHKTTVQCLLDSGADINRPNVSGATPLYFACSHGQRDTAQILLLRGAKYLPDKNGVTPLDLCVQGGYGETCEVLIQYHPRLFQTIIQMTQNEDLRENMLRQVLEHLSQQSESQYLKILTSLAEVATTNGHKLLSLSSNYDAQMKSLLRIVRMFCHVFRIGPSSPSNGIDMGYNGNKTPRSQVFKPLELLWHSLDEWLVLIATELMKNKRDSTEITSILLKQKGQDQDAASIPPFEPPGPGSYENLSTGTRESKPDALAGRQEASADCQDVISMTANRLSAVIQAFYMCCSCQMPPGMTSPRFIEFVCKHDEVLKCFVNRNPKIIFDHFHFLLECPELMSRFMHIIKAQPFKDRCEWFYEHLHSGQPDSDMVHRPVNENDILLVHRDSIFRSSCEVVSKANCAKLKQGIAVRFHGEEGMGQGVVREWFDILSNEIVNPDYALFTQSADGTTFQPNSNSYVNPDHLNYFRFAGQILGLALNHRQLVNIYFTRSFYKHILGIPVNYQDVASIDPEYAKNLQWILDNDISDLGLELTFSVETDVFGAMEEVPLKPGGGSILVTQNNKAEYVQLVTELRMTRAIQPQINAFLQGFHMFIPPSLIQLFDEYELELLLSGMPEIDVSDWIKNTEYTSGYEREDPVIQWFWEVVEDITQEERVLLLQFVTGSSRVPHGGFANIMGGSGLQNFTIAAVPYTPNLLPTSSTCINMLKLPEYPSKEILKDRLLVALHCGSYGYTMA

Substance “Rac1 (from UniProt P63000 1-192) (natural protein; other documents disagree on this pair)” returned a fraction of the total Rac1 pool bound by Hace1 of less than 10%.

(Values after article PMC3759041.)
